Assay results reported in patent US20220204643A1 (published 2022).
Blank lines part the entries; values can stand above or below the binder they belong to.

Tests used:
[1] = biological target: T1, serpin family B member 6, transcript variant 2 (human, UniProt P35237 1-376); experiment: protein array
T1 construct: on protein array; also called SERPINB6
T1 sequence: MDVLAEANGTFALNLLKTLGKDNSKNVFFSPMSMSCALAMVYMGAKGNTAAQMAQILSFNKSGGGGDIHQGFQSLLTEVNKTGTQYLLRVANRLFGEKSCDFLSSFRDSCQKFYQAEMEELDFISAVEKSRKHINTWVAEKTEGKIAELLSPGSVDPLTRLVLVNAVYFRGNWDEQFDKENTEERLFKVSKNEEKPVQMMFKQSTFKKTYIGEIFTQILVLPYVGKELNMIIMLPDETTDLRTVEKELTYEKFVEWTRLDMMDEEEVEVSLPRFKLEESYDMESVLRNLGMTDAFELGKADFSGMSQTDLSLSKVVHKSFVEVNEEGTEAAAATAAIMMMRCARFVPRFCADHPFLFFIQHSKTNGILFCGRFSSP

[2] = biological target: T2, BTB domain containing 8 (human, UniProt Q5XKL5 1-374, limits assumed); experiment: protein array
T2 construct: on protein array; also called BTBD8

[3] = biological target: T3, Jupiter microtubule associated homolog 2 (human, UniProt Q9H910 1-190); experiment: protein array
T3 construct: on protein array; also called HN1L
T3 sequence: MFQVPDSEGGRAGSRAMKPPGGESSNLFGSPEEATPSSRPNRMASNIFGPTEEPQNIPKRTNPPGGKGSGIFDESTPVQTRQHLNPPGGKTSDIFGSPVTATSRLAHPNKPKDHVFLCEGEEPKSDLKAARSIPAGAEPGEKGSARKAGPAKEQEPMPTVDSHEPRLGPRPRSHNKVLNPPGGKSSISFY

[4] = biological target: T4, microfibril associated protein 3, transcript variant 3 (human, UniProt P55082 19-362); experiment: protein array
T4 construct: on protein array; also called MFAP3

[5] = biological target: T5, 5-hydroxytryptamine receptor 1E (human, UniProt P28566 1-365); experiment: protein array
T5 construct: on protein array; also called HTR1E

[6] = biological target: T6, HEAT repeat containing 3, transcript variant 1 (human, UniProt Q7Z4Q2 1-680); experiment: protein array, with experimental replicate
T6 construct: on protein array; also called HEATR3
T6 sequence: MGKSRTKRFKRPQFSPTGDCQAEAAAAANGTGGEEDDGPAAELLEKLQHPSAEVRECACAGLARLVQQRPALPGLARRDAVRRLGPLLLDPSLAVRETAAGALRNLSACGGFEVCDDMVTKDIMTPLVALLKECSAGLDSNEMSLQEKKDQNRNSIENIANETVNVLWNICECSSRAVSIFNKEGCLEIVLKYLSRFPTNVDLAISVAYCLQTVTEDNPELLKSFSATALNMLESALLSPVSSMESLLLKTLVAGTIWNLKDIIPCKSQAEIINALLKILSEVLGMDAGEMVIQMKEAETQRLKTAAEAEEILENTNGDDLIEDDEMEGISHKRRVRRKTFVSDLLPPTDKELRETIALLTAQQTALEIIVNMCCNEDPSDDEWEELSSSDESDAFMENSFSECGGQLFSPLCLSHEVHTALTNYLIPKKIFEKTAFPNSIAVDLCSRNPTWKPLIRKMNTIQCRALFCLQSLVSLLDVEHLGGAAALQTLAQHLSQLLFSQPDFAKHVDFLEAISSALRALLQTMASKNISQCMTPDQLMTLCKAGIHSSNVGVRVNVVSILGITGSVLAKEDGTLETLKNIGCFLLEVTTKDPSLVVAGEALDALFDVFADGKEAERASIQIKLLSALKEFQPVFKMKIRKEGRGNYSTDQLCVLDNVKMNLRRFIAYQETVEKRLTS

[7] = biological target: T7, microtubule associated protein RP/EB family member 2, transcript variant 1 (human, UniProt Q15555 1-327); experiment: protein array
T7 construct: on protein array; also called MAPRE2

[8] = biological target: T8, rhophilin associated tail protein 1 like, transcript variant 2 (human, UniProt Q96C74 1-230); experiment: protein array
T8 construct: on protein array; also called ROPN1L
T8 sequence: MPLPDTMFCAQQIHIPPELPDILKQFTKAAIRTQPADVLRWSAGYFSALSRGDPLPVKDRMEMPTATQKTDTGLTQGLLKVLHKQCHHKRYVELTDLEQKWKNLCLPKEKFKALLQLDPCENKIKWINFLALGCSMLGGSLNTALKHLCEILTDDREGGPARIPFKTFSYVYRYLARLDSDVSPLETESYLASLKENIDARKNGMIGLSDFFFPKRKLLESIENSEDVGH

[9] = biological target: T9, Dpy-30 histone methyltransferase complex regulatory subunit (human, UniProt Q9C005 1-99); experiment: protein array
T9 construct: on protein array

[10] = biological target: T10, interleukin 27 receptor subunit alpha (human, UniProt Q6UWB1 33-636); experiment: protein array
T10 construct: on protein array; also called IL27RA
T10 sequence: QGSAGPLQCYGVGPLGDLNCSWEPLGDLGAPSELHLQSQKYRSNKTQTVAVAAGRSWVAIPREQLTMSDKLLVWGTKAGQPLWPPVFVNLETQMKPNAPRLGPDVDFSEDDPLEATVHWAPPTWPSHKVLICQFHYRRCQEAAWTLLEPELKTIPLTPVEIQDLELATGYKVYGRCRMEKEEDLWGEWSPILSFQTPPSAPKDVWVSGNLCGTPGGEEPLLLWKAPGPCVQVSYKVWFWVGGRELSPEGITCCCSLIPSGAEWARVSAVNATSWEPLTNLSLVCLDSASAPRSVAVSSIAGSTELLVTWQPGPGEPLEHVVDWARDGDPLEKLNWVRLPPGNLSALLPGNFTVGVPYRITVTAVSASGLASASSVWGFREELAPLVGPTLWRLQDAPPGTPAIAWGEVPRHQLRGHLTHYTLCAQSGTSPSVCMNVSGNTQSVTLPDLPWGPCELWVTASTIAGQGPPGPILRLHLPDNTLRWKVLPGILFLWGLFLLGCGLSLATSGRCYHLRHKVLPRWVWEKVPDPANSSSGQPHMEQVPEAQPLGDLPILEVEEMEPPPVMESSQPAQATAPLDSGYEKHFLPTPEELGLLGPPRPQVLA

[11] = biological target: T11, Deoxyhypusine synthase (human, UniProt P49366 1-369); experiment: protein array
T11 construct: on protein array; also called DHPS
T11 sequence: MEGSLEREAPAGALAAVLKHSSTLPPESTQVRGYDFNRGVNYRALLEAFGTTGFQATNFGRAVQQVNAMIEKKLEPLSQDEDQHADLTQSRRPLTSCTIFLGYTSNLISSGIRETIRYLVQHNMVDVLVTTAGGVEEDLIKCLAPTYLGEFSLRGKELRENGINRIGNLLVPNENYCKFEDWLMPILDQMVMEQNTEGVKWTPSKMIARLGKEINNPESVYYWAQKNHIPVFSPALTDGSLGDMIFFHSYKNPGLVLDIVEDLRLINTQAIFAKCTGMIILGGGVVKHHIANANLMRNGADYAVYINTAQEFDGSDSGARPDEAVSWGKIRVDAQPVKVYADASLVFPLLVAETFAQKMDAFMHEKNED

T7 sequence (Q15555 whole entry, change not shown): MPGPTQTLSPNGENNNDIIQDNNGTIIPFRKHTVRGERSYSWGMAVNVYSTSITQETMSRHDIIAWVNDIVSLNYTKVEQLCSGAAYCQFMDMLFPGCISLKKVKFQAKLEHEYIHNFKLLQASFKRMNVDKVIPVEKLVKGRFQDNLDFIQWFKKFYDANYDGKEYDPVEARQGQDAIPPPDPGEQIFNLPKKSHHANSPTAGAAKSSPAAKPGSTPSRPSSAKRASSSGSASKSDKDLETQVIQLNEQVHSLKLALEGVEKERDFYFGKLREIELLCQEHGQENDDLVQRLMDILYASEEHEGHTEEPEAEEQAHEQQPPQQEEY
T4 sequence (P55082 19-362 limits assumed, change not shown): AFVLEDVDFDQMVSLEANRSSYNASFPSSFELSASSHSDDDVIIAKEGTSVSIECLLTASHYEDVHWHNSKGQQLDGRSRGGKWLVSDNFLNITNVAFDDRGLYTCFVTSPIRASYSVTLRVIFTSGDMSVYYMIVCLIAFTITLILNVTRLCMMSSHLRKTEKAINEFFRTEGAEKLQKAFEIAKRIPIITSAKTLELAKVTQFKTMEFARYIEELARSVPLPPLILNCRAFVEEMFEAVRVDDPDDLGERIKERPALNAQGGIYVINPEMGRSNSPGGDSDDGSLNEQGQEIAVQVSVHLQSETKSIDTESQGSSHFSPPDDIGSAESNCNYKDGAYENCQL
T5 sequence (P28566 whole entry): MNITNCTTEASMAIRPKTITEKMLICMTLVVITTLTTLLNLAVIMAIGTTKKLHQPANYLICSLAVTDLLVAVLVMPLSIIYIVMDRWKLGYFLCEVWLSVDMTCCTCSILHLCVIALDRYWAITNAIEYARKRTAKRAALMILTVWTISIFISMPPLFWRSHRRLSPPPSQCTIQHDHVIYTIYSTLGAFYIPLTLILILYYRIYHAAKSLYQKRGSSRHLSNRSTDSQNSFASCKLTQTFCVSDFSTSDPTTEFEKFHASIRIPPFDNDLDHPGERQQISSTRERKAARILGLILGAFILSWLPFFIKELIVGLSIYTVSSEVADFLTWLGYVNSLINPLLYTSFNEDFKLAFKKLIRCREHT
T9 sequence (Q9C005 whole entry, one chain of several): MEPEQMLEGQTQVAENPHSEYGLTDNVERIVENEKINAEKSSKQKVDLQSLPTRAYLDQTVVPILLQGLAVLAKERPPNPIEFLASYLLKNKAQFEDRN
T2 sequence (Q5XKL5 other isoform, or with tags, fused parts or gaps limits assumed): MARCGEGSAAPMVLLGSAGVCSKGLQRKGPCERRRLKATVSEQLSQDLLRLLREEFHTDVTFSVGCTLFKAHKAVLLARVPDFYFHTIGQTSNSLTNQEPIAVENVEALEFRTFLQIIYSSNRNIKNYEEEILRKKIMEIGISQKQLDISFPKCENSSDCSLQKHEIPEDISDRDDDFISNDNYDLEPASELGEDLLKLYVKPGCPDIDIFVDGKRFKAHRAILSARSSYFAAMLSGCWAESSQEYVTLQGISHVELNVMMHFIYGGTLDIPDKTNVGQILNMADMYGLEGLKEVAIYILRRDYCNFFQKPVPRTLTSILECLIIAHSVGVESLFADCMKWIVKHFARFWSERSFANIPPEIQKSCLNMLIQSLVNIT

binding result [8]: binds
binding result [9]: binds
B7: TMEL1041 (antibody, V domains shown)
VH: EVQLLESGGGLVQPGGSLRLSCAASGFTFRIYAMSWVRQAPGKGLEWVSAISYSGNTTYYADSVKGRFTISRDNSKNTLYLQINNLRAEDTAIYYCAIQEKRELQLRRELDNYWGQGTLVTVSS
VL: PYELTQPPSVSLSPGQTARITCSGDALPKKYAYWYQQKSGQAPVLVIYEDSKRPSGIPERFSGSSSGTTATLTISGAQVDDEGDYYCYSPDSSGNVWVFGGGTKLTVLG
notes: VH/VL tied via antigen in summary, not by name in this stretch

binding result [10]: binds
B8: TOVA1002 (antibody, V domains shown)
VH: QVQLVESGGGVVQPGRSLRLSCAASGFTFSNFAMHWVRQAPGKGLEWVVVISSDGSNKNYADSVKGRFTISRDNSKNTLYLQMNSLRAEDTAVYYCARDLGVGSTTYWGQGTLVTVSS
VL: SYVLTQPPSVSVAPGQTARITCGGNNIGSKSVHWYQQKPGQAPVLVVYDDSDRPSGIPERFSGSNSGNTATLTISRVEAGDEADYYCQVWDGYSDPLVFGGGTKLTVLG
notes: as for B7

binding result [11]: binds
B9: TOVA1003 (antibody)
VH: GEQLLESGGGLVQPGGSLRLSCAASGFTFSHYAMTWVRQAPGKGLEWVSGVSGSGFTTYYADSVKGRFTISRDNAQNTLYLHMNSLRAEDTAIYYCVKDLEVSIGHNFDFWGQGTLVTVSSASTKGPSVFPLAPSSKSTSGGTAALGCLVKDYFPEPVTVSWNSGALTSGVHTFPAVLQSSGLYSLSSVVTVPSSSLGTQTYICNVNHKPSNTKVDKRV
VL: EVQMTQSPSSLSASVGDRVTITCRASQHIAGRLNWYQQKPGKAPKLLIHSASSVQREVPSRFGGSGFGTDFTLTIYSLQAEDFATYFCQQSYYTPPTFAGGTRVDLKRTVAAPSVFIFPPSDEQLKSGTASVVCLLNNFYPREAKVQWKVDNALQSGNSQESVTEQDSKDSTYSLSSTLTLSKADYEKHKVYACEVTHQGLSSPVTKSFNRGEC
notes: as for B7

More lines, now with the values behind:

B1: TMEL1040 (antibody, V domains shown)
VH: EVQLVQSGAEVKKPGESLKISCKGSGYSFTTYWIAWVRQMPGKGLEWMGIIYPADSDTRYSPSFQGQVTMSADQSINTAYLQWSSLKASDTAMYYCARRGREFDYWGQGTLLTVSS
VL: QSALTQPASVSGSPGQSITISCTGTSSDVGSYNLVSWYQQHPGKAPKLMIYEGSKRPSGVSNRFSGSKSGNTASLTISGLQAEDEADYYCCSYAGSSTPWVFGGGTKLTVL
notes: as for B7
binding result [1]: binds

B2: TMES1002 (antibody, V domains shown)
VH: QVQVVESGGGLVKPGGSLRLSCAVSGLDFRDYYVNWIRQAPGKGLEWLSYITSPGGHTSYSDSVKGRFTISRDNAKNSVYLQMDSLTVEDTAVYFCAIKEGYGLSDWGQGTLVTVSS
VL: EIVLTQSPVTLSLSPGERATLSCRASQSVSSSYIAWYQQKPGQAPRLLIYGASTRATGIPDRFSGSGSGTDFTLTISRLEPEDCAVFYCQQYGSSHYTFGQGTKLEIKR
notes: as for B7
binding result [2]: binds
binding result [3]: binds

B3: TBRE1002 (antibody, V domains shown)
VH: QVQLVESGGGVVQPGGSLRLSCGASGFAFSSNGMHWVRQAPGKGLEWVAFIHYDGRNKHYTDSVKGRFAISVDDSKTTLYLQMSSLKTEDTAVYYCVKDSRVTGQSSGYIFDSWGQGTLVTVSS
VL: ETVMTQSPATLSVSPGDRATLSCRASQNVNFNLAWYQQKPGQAPRLLIYDASTRATGIPARFSGSASGTEFTLTINSLQSEDFAVYYCQQYNNWWTFGQGTKLEIKR
notes: VH/VL only
binding result [4]: binds

B4: TBLA1013 (antibody, V domains shown)
VH: EVQLLESGGGLVQPGGSLTLSCVGSRFTFSSYAMNWVRQSPGRGLEWVASISATTGSTYYTDSVEGRFTISRDNSRDTLYLQMNSLRADDTALYYCVRSFVGAVPAYPNFDFWGPGTLVTVSS
VL: PSGLTQPPSASGTPGQRVTMSCSGSSSNIGRNYVYWYQQLPGAAPKLLIYRDNQRPSGVPDRFSGSKSGTSASLAISGLRSEDEADYYCAAWDDNVSGPGFGAGTRLTVLG
notes: VH/VL only
binding result [5]: binds

B5: TOVA1004 (antibody, V domains shown)
VH: EVQLVESGGGLVKPGGSLRLSCAASGFTFSSYSMNWVRQAPGKGLEWVSSISSSSSYIYYADSVKGRFTISRDNAKNSLYLQMNSLRAEDTAVYYCARDRGVVVVAATPYYYGMDVWGQGTTVTVSS
VL: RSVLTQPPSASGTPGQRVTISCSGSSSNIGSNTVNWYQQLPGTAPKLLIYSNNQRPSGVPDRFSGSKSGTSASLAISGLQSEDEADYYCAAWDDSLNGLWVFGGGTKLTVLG
notes: as for B7
binding result [6]: binds

B6: TMES1004 (antibody, V domains shown)
VH: QVQLVQSGAEVKKPGASVKISCKASGYTFTSHAIHWVRQAPGQTFEWLGWINPVNGVTKYSQTFQDRVTIVRDKSATTTYMDLSGLTFEDTAMYYCARVLDFYGSSVLDYWGQGTLVTVSS
VL: QSALTQPASVSGSPGQSITISCTGTSSDIGTYNLVSWYQQRPGKAPKLIIYDVIKRPSGISDRFSGSKSDNMASLTISGLQAEDEAHYYCCSYRSSTAPVVFGGGTKVTVL
notes: as for B7
binding result [7]: binds
